The target in data set [1] is T1, 35S-labelled transcription-translation product of p28 Bap31 cDNA.
T1 chain: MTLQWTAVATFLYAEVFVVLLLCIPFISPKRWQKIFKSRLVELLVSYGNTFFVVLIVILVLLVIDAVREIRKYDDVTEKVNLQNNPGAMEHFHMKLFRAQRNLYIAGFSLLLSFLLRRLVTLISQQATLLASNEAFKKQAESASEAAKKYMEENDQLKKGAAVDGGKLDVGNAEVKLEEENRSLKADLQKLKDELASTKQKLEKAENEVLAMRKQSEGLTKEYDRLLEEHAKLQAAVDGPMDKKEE

Data set [2] addresses T2, 32P-Bcl-2Δc21/his6/HMK (human, UniProt P10415 1-218, 32P-labelled with heart muscle kinase and 32P-gamma-ATP at the C-terminal HMK recognition sequence (arg-arg-ala-ser)).
T2 construct: range 1-218; Expressed in E. coli from the pTrchis vector; a soluble mixture of monomers and dimers at pH 7.4; also called 32P-labelled Bcl-2 cytosolic domain probe
Description: Far Western blot of purified GST fusion proteins.

For data set [3], the target named is T3, Bax (transfected, 293T cells) (UniProt Q07812 1-192, limits assumed).
T3 construct: Detected with rabbit anti-Bax sc-526; also called the pro-apoptotic member of the Bcl-2 family
T3 sequence (Q07812 whole entry): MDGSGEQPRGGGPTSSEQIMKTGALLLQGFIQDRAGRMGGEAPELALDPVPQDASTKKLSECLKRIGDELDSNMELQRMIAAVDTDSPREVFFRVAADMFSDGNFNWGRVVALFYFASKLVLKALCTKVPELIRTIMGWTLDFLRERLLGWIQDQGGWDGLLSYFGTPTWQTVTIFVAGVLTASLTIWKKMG
Description: anti-Flag co-immunoprecipitation, anti-Bax Western blot. As to the method:
After centrifugation at 11,000 g, the supernatant was incubated with 50 µl of a 1:1 slurry of protein G Sepharose for 1 hour at 4° C. The Sepharose was removed and the supernatant incubated with mouse M2 anti-Flag antibody (IBI-A Kodak Co., New Haven, Conn.) at 4° C. for 6–8 hours, at which time 20 µl of a 1:1 slurry of proteinG Sepharose was added. After 1 hour at 4° C., the beads were recovered, washed, and boiled in SDS sample buffer. Following SDS PAGE and transfer to nitrocellulose, blots were developed with either mouse anti-Myc 9E1D antibody or mouse anti-HA 12CA5 antibody (both from Babco, Berkeley, Calif.) or rabbit anti-Bax sc-526 antibody (commercially available from Santa Cruz Biotech., Inc., Santa Cruz, Calif.).

Data set [4] addresses T2, 32P-Bcl-2Δc21/his6/HMK. Kind of data set: Far Western blot of reverse phase HPLC fractions (FIG. 2B). As to the method: Aliquots of fractions eluted from the gel were assayed by ^32P-Bcl-2Δc21/his6/HMK Far Western blotting analysis, and the radioactive bands corresponding to p20 and p21 Bax were detected and quantified by Phosphorimager. The levels relative to the maximal signal detected (set at 100) were plotted as a bar graph (upper panel). […] The positions of molecular mass marker proteins are indicated. The black bars on the graph indicate p20. The white stippled bars on the graph indicate p21 Bax. Figure 2B: FIG. 2B is a reverse phase HPLC analysis ($A280$ profile; upper panel) and corresponding graph (lower panel) showing proteins eluted between 190 and 220 ml from the preparative SDS PAGE of FIG. 2A. Equal aliquots from all fractions were assayed for ^32P-Bcl-2Δc21/his6/HMK interacting protein by Far Western blotting analysis, for which only p20 was detected. Amounts relative to the maximal signal detected (set at 100) were plotted as a bar graph (lower panel). […]
Identification of the p20 Bcl-2-binding polypeptide was obtained by NH_2-terminal peptide sequence analysis of p20 following its isolation by a combination of differential solubilization in detergent, preparative SDS PAGE, and reverse phase HPLC (FIGS. 2A and 2B). […] One candidate sequence emerged, and was the only sequence that was detected in the peak fraction of Bcl-2 binding activity (fraction 54, FIG. 2B).

No end group written: not given here.

T2 sequence (P10415 other isoform, or with tags, fused parts or gaps mutant limits assumed): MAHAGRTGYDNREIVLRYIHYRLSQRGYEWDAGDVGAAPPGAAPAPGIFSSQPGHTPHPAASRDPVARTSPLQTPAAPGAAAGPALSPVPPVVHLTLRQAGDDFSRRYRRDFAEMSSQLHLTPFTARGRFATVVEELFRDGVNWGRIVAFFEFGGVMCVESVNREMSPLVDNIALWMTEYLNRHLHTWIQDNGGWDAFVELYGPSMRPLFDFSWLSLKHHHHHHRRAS

B1: FLICE (caspase-8) (protein)
chain: SESQTLDKVYQMKSKPRGYCLIINNHNFAKAREKVPKLHSIRDRNGTHLDAGALTTTFEELHFEIKPHDDCTVEQIYEILKIYQLMDHSNMDCFICCILSHGDKGIIYGTDGQEAPIYELTSQFTGLKCPSLAGKPKVFFIQACQGDNYQKGIPVETDSEEQPYLEMDLSSPQTRYIPDEADFLLGMATVNNCVSYRNPAEGTWYIQSLCQSLRERCPRGDDILTILTEVNYEVSNKDDKKNMGKQMPQPTFTLRKKLVFPSD
On to B1, for which the “p20 cleavage product quantitated on a Phosphorimager” value in data set [1] was “p28 Bap31 was more sensitive to cleavage by FLICE (caspase-8) than ICE (caspase-1)”.

B2: CPP32 (caspase-3) (protein)
chain: SGISLDNSYKMDYPEMGLCIIINNKNFHKSTGMTSRSGTDVDAANLRETFRNLKYEVRNKNDLTREEIVELMRDVSKEDHSKRSSFVCVLLSHGEEGIIFGTNGPVDLKKITNFFRGDRCRSLTGKPKLFIIQACRGTELDCGIETDSGVDDDMACHKIPVEADFLYAYSTAPGYYSWRNSKDGSWFIQSLCAMLKQYADKLEFMHILTRVNRKVATEFESFSFDATFHAKKQIPCIVSMLTKELYFYH
Consider B2, for which the “cleavage of 35S-labelled p28 Bap31 in vitro (SDS-PAGE)” value in data set [1] is listed as “little reactivity was observed for caspase-3 over a wide range of enzyme concentration”.

B3: GST-p28 (122-164) (other)
chain: LISQQATLLASNEAFKKQAESASEAAKKYMEENDQLKKGAAVD
modifications: also: GST fusion
notes: Expressed in E. coli and purified on glutathione Sepharose; not shown: glutathione S-transferase encoded by pGEX-2T (Pharmacia)
On to B3, for which, in the data set with 32P-Bcl-2Δc21/his6/HMK [2], the binding result is listed as “no binding”.

B4: Flag-tagged p28 Bap31 (other)
chain: MTLQWTAVATFLYAEVFVVLLLCIPFISPKRWQKIFKSRLVELLVSYGNTFFVVLIVILVLLVIDAVREIRKYDDVTEKVNLQNNPGAMEHFHMKLFRAQRNLYIAGFSLLLSFLLRRLVTLISQQATLLASNEAFKKQAESASEAAKKYMEENDQLKKGAAVDGGKLDVGNAEVKLEEENRSLKADLQKLKDELASTKQKLEKAENEVLAMRKQSEGLTKEYDRLLEEHAKLQAAVDGPMDYKDDDDKAMDKKEE
For B4, in data set [3], the binding result is reported as “no binding”.

B5: p20 cleavage product of p28 Bap31 (other)
chain: MTLQWTAVATFLYAEVFVVLLLCIPFISPKRWQKIFKSRLVELLVSYGNTFFVVLIVILVLLVIDAVREIRKYDDVTEKVNLQNNPGAMEHFHMKLFRAQRNLYIAGFSLLLSFLLRRLVTLISQQATLLASNEAFKKQAESASEAAKKYMEENDQLKKGAAVD
notes: Endogenous product in apoptotic human KB cells, on SDS-PAGE blots; also called cleavage product "b"
On to B5, for which, in the data set with 32P-Bcl-2Δc21/his6/HMK [4], the binding result is “binds”.

B6: GST-p28 (1-164) (other)
chain: MTLQWTAVATFLYAEVFVVLLLCIPFISPKRWQKIFKSRLVELLVSYGNTFFVVLIVILVLLVIDAVREIRKYDDVTEKVNLQNNPGAMEHFHMKLFRAQRNLYIAGFSLLLSFLLRRLVTLISQQATLLASNEAFKKQAESASEAAKKYMEENDQLKKGAAVD
notes: Expressed in E. coli and purified on glutathione Sepharose; also called GST-p20; not shown: glutathione S-transferase encoded by pGEX-2T (Pharmacia)
B6: the binding result in the data set with 32P-Bcl-2Δc21/his6/HMK [2] is listed as “binds”.

B7: GST-p28 (1-246) (other)
chain: MTLQWTAVATFLYAEVFVVLLLCIPFISPKRWQKIFKSRLVELLVSYGNTFFVVLIVILVLLVIDAVREIRKYDDVTEKVNLQNNPGAMEHFHMKLFRAQRNLYIAGFSLLLSFLLRRLVTLISQQATLLASNEAFKKQAESASEAAKKYMEENDQLKKGAAVDGGKLDVGNAEVKLEEENRSLKADLQKLKDELASTKQKLEKAENEVLAMRKQSEGLTKEYDRLLEEHAKLQAAVDGPMDKKEE
notes: Expressed in E. coli and purified on glutathione Sepharose; The thrombin-site linker of pGEX-2T is not described; also called GST-p28 Bap31; not shown: glutathione S-transferase encoded by pGEX-2T (Pharmacia)
For B7, in the data set with 32P-Bcl-2Δc21/his6/HMK [2], the binding result is reported as “binds”.

The values above are taken from patent publication US6558950 (MCGILL UNIVERSITY, dated 2003).
